# Legend:
# Type in all cases: biochemical
# [1] = SaSSy enzyme assay with FPP, GC-MS product analysis
# Description: Enzyme assays for both recombinant isoenzyme proteins P143 and S143 were done in duplicate using GC vials as per O'Maille, P. E., et al. (“A single-vial analytical and quantitative gas chromatography-mass spectrometry assay for terpene synthases,” Anal. Biochem. 335:210-217 (2004)). For each assay, 20 μL of protein (8 mg/mL) was added to 450 μL of reaction buffer containing 25 mM HEPES, 10% glycerol, 5 mM DTT and 10 mM of Mg^2+. 20 μL of substrates FPP and GPP (˜1 mg/mL) were added and the mixture gently shaken. Final enzyme concentration was 0.3 mg/mL. Vials were overlaid with 500 μL of pentane to trap volatile products and incubated at 30° C. for 2 h.
# (§1) The product mixture of the SaSSy enzyme was analysed on an Agilent 6890 GC with a 5973 MSD using helium as carrier gas. Peak identification was done using an HP5-MS capillary column (30 m, 0.25 mm ID, […]). Injector temperature was 240° C., detector temperature was set at 250° C., injection volume was 1 μL and column flow rate was 1 mL/min. Oven temperature program was as follows: oven program was held for 1 min at 40° C., then ramped at 7.5° C./min to 250° C. and held. All mass spectra were detected at 70 eV in multiple ion scan mode.
# The identities of products from SaSSy incubations were confirmed by comparison of mass spectra retention times to authentic sandalwood oil in the NIST 2005 library, see publications by Adams, R. P. (“Identification of essential oil components by gas chromatography/mass spectrometry,” Allured Publishing Corporation, Carol Stream, Ill. (1995)) and MassFinder (www.massfinder.com).
# The mass spectrum of the four compounds produced by the SaSSy enzyme (shown in FIG. 2A) are the same as those of natural β-santalene produced in sandalwood trees (see Adams (1995), cited above, for comparison profiles).
# [2] = GC-FID determination of reaction products of terpene synthases from FPP with magnesium or manganese
# Description: Enzyme assays for all recombinant proteins were done in triplicate using the GC vial method described by O'Maille et al. (Anal. Biochem. 335:[…] (2004). For enzyme assays where only product identification was needed, 10 μg of protein was used in a final volume of 500 μL of reaction buffer (25 mM HEPES, 10% glycerol, 5 mM DTT and 10 mM of either Mg^2+ or Mn^2+. Substrates (FPP and GPP) were added to a final reaction concentration of 100 μM. Vials were overlaid with 500 μL of hexane to trap volatile products and incubated at 30° C. for 2 h. Mixtures were vortexed for 1 min to extract all volatiles and the vials were centrifuged to separate the organic layer.
# Product mixtures were analysed by GC-MS in scan mode for product identification. A standard containing the three santalenes and α-trans-bergamotene was prepared by flash chromatography of 2 mL of neat S. album oil over silica and eluted in hexane. A final yield of 25 mg was resuspended in EtOAc and purity was confirmed by GC-FID with conditions described below. All mass spectra were compared to the NIST 2005 library and the literature. Retention indices were determined for all compounds using an n-alkane standard and compared to the literature (R. P. Adams, “Identification of essential oil components by gas chromatography/mass spectrometry,” Allured Publishing Corporation, Carol Stream, Ill. (1995)).
# (§2) GC-FID was performed on a Shimadzu GC2010 with a 30 m 0.25 mm ID, 0.25 μm film DB-WAX column with He as the carrier gas. Splitless injection (2 μL) was used for all analyses. Conditions were as follows: injector 200° C., detector 250° C., column flow rate 1 mL/min. Oven program: 40° C. for 3 min, then 8° C./min to 180° C., held 5 min, then 10° C./min to 220° C., held 10 min. Needle height was adjusted to only draw from the upper organic layer of all sample vials. GC-MS was performed on a Shimadzu GC2010 with the same DB-WAX column and using He as the carrier gas. Conditions were as follows: injector 200° C., MS interface 240° C., ion source 200° C. Oven program: 40° C. for 3 min, then 8° C./min to 180° C., held 5 min, then 10° C./min to 220° C., held 10 min. Solvent cut time was set to 5 min. For product identification, total ion monitoring was used, scanning from m/z 45 to m/z 300. For kinetic assays, single ion monitoring of the sesquiterpene base ions m/z 91, 93 and 94 were used. Likewise monoterpene base ions (m/z 69, 71 and 93) were monitored. An internal standard (isobutyl benzene, 30 μM) was added to the hexane used to overlay each reaction. Detector response factors were calculated based on the santalene standard prepared earlier and used to determine the product concentrations for kinetic analysis.
# [3] = SaSSy enzyme assay with GPP, GC-MS product analysis; conditions: GPP as substrate, Mn^2+
# Description: Enzyme assays for both recombinant isoenzyme proteins P143 and S143 were done in duplicate using GC vials as per O'Maille, P. E., et al. (“A single-vial analytical and quantitative gas chromatography-mass spectrometry assay for terpene synthases,” Anal. Biochem. 335:210-217 (2004)). […] 20 μL of substrates FPP and GPP (˜1 mg/mL) were added and the mixture gently shaken. Final enzyme concentration was 0.3 mg/mL. Vials were overlaid with 500 μL of pentane to trap volatile products and incubated at 30° C. for 2 h.
# as §1, with “mode. […]” for “mode.”
# [4] = Steady-state enzyme kinetic assays
# Description: For determination of steady-state enzyme kinetic constants, conditions were as described previously except the enzyme concentration was kept at 10 nM. Substrate concentrations ranged from 1 uM to 100 uM, and reactions were incubated at 30° C. for exactly 5 mins. Reactions were quenched by the addition of 500 μL 0.5 M EDTA, pH 8.0 and vortexed as above.
# as §2
# [5] = GC-FID determination of reaction products of terpene synthases from FPP with magnesium or manganese; remark: listed apart in the source
molecule,measurement,setting,value
"SaSSy: santalene synthase (terpene synthase) from Santalum album, gene SEQ ID NO:1, protein SEQ ID NO:2 (protein, listed as Santalum album, SaSSy Protein) MDSSTATAMTAPFIDPTDHVNLKTDTDASENRRMGNYKPSIWNYDFLQSLATHHNIVEERHLKLAEKLKGQVKFMFGAPMEPLAKLELVDVVQRLGLNHLFETEIKEALFSIYKDGSNGWWFGHLHATSLRFRLLRQCGLFIPQDVFKTFQNKTGEFDMKLCDNVKGLLSLYEASYLGWKGENILDEAKAFTTKCLKSAWENISEKWLAKRVKHALALPLHWRVPRIEARWFIEAYEQEANMNPTLLKLAKLDFNMVQSIHQKEIGELARWWVTTGLDKLAFARNNLLQSYMWSCAIASDPKFKLARETIVEIGSVLTVVDDGYDVYGSIDELDLYTSSVERWSCVEIDKLPNTLKLIFMSMFNKTNEVGLRVQHERGYNSIPTFIKAWVEQCKSYQKEARWFHGGHTPPLEEYSLNGLVSIGFPLLLITGYVAIAENEAALDKVHPLPDLLHYSSLLSRLINDIGTSPDEMARGDNLKSIHCYMNETGASEEVAREHIKGVIEENWKILNQCCFDQSQFQEPFITFNLNSVRGSHFFYEFGDGFGVTDSWTKVDMKSVLIDPIPLGEE",epi-β-santalene in product mixture,"[1]; FPP, Mg^2+ buffer",4.3%
same,α-santalene in product mixture,"[1]; FPP, Mg^2+ buffer",34.7%
same,α-trans-bergamotene in product mixture,"[1]; FPP, Mg^2+ buffer",11.1%
same,β-santalene in product mixture,"[1]; FPP, Mg^2+ buffer",41.3%
same,Relative % composition in oil produced by enzyme: E-α-bergamotol,[1]; four major components only,12.1%
same,Relative % composition in oil produced by enzyme: epi-β-santalol,[1]; four major components only,4.7%
same,Relative % composition in oil produced by enzyme: α-santalol,[1]; four major components only,38.0%
same,Relative % composition in oil produced by enzyme: β-santalol,[1]; four major components only,45.2%
same,E-β-farnesene among reaction products (GC-FID),"[2]; FPP Mg, mean",1.7
same,Z-β-farnesene among reaction products (GC-FID),"[2]; FPP Mg, mean",0.8
same,epi-β-santalene among reaction products (GC-FID),"[2]; FPP Mg, mean",4.7
same,α-E-bergamotene among reaction products (GC-FID),"[2]; FPP Mg, mean",16.0
same,α-santalene among reaction products (GC-FID),"[2]; FPP Mg, mean",45.3
same,β-santalene among reaction products (GC-FID),"[2]; FPP Mg, mean",31.5
same,E-β-farnesene among reaction products (GC-FID),"[2]; FPP Mg, replicate 1",1.7
same,Z-β-farnesene among reaction products (GC-FID),"[2]; FPP Mg, replicate 1",0.7
same,epi-β-santalene among reaction products (GC-FID),"[2]; FPP Mg, replicate 1",4.6
same,α-E-bergamotene among reaction products (GC-FID),"[2]; FPP Mg, replicate 1",16.3
same,α-santalene among reaction products (GC-FID),"[2]; FPP Mg, replicate 1",46.4
same,β-santalene among reaction products (GC-FID),"[2]; FPP Mg, replicate 1",30.4
same,E-β-farnesene among reaction products (GC-FID),"[2]; FPP Mg, replicate 2",1.7
same,Z-β-farnesene among reaction products (GC-FID),"[2]; FPP Mg, replicate 2",1.0
same,epi-β-santalene among reaction products (GC-FID),"[2]; FPP Mg, replicate 2",5.1
same,α-E-bergamotene among reaction products (GC-FID),"[2]; FPP Mg, replicate 2",15.3
same,α-santalene among reaction products (GC-FID),"[2]; FPP Mg, replicate 2",43.8
same,β-santalene among reaction products (GC-FID),"[2]; FPP Mg, replicate 2",33.1
same,E-β-farnesene among reaction products (GC-FID),"[2]; FPP Mg, replicate 3",1.7
same,Z-β-farnesene among reaction products (GC-FID),"[2]; FPP Mg, replicate 3",0.7
same,epi-β-santalene among reaction products (GC-FID),"[2]; FPP Mg, replicate 3",4.3
same,α-E-bergamotene among reaction products (GC-FID),"[2]; FPP Mg, replicate 3",16.4
same,α-santalene among reaction products (GC-FID),"[2]; FPP Mg, replicate 3",45.6
same,β-santalene among reaction products (GC-FID),"[2]; FPP Mg, replicate 3",31.2
same,E-β-farnesene among reaction products (GC-FID),"[2]; FPP Mn, mean",7.6
same,Z-β-farnesene among reaction products (GC-FID),"[2]; FPP Mn, mean",0.5
same,epi-β-santalene among reaction products (GC-FID),"[2]; FPP Mn, mean",0.7
same,α-E-bergamotene among reaction products (GC-FID),"[2]; FPP Mn, mean",74.7
same,α-santalene among reaction products (GC-FID),"[2]; FPP Mn, mean",9.8
same,β-santalene among reaction products (GC-FID),"[2]; FPP Mn, mean",6.6
same,E-β-farnesene among reaction products (GC-FID),"[2]; FPP Mn, replicate 1",7.4
same,Z-β-farnesene among reaction products (GC-FID),"[2]; FPP Mn, replicate 1",0.6
same,epi-β-santalene among reaction products (GC-FID),"[2]; FPP Mn, replicate 1",0.9
same,α-E-bergamotene among reaction products (GC-FID),"[2]; FPP Mn, replicate 1",75.7
same,α-santalene among reaction products (GC-FID),"[2]; FPP Mn, replicate 1",9.5
same,β-santalene among reaction products (GC-FID),"[2]; FPP Mn, replicate 1",6.0
same,E-β-farnesene among reaction products (GC-FID),"[2]; FPP Mn, replicate 2",8.0
same,Z-β-farnesene among reaction products (GC-FID),"[2]; FPP Mn, replicate 2",0.5
same,epi-β-santalene among reaction products (GC-FID),"[2]; FPP Mn, replicate 2",0.8
same,α-E-bergamotene among reaction products (GC-FID),"[2]; FPP Mn, replicate 2",73.4
same,α-santalene among reaction products (GC-FID),"[2]; FPP Mn, replicate 2",9.9
same,β-santalene among reaction products (GC-FID),"[2]; FPP Mn, replicate 2",7.3
same,E-β-farnesene among reaction products (GC-FID),"[2]; FPP Mn, replicate 3",7.5
same,Z-β-farnesene among reaction products (GC-FID),"[2]; FPP Mn, replicate 3",0.5
same,epi-β-santalene among reaction products (GC-FID),"[2]; FPP Mn, replicate 3",0.5
same,α-E-bergamotene among reaction products (GC-FID),"[2]; FPP Mn, replicate 3",74.9
same,α-santalene among reaction products (GC-FID),"[2]; FPP Mn, replicate 3",10.1
same,β-santalene among reaction products (GC-FID),"[2]; FPP Mn, replicate 3",6.4
same,Relative % composition in oil produced by enzyme: E-α-bergamotol,[2]; GC-FID,16.0%
same,Relative % composition in oil produced by enzyme: β-santalol,[2]; GC-FID,31.5%
same,products formed,[3],"a mixture of α-pinene, camphene, limonene and α-terpinolene, along with other monoterpene products"
same,Kcat,[4]; FPP,0.0112 s⁻¹
same,Vmax,[4]; assays using FPP,0.42 µM/min
same,Relative % composition in oil produced by enzyme: epi-β-santalol,[5],4.7%
same,Relative % composition in oil produced by enzyme: α-santalol,[5],45.3%
